# Assay: soluble on expression in E. coli; label from the status in PepcDB or PDB records
row,Sequence,soluble on expression in E. coli
1,GSMSAKDERAREILRGFKLNWMNLRDAETGKILWQGTEDLSVPGVEHEARVPKKILKCKAVSRELNFSSTEQMEKFRLEQKVYFKGQCLEEWFFEFGFVIPNSTNTWQSLIEAAPESQMMPASVLTGNVIIETKFFDDDLLVSTSRVRLFYV,soluble
2,MYKQLEKLITLTNNDLNLVNRRFGQRTDITSEQLELLRILFNYDRLSQYDLTMKISREQSIVSRWIKKLVLKGYITSQQSSEDLRCKELILTDQARTLISQINNARCELIEARCQCLSEVELDNLNQLLDKLNQRRISL,not soluble
3,PGAPRRLIDAALAAGAQGLVIEAMGSGNVGTDIGVALGEALDAGIPVVISTRVPRGEVFGAYGGAGGGKTLASKGAVNSTYFRSGQARVLLAIAIASGVHPATLL,not soluble
4,MGSDKIHHHHHHMKRENLHQPFEISFSELAESLLKEHEHTFFELVYILSGTGIQWINNNMFPYHDGHLFMITPGDTHSFEIHTTTKFVDIKFNDIYIHSSVFGAENIQRLEFILQHANHQPGCILRNKVDKLLVKPMIEAIIREYINRNLYSKEIITQIINTIIIVVARNIAMFLPEQVDECSEDKSLDILQYIQANIYKTGKIRAKDISQHFGISENYLGRYIKKHTNETMQQYILNYKLKLVENRLLHSQMRICEIVEELGFTDESHLNKFFKKYRGCSPSNFRKNNLK,not soluble
5,MSYYHHHHHHDYDIPTTENLYFQGAMDPEFRVINLAYDDNGTGDPVVFIAGRGGAGRTWHPHQVPAFLAAGYRCITFDNRGIGATENAEGFTTQTMVADTAALIETLDIAPARVVGVSMGAFIAQELMVVAPELVSSAVLMATRGRLDRARQFFNKAEAELYDSGVQLPPTYDARARLLENFSRKTLNDDVAVGDWIAMFSMWPIKSTPGLRCQLDCAPQTNRLPAYRNIAAPVLVIGFADDVVTPPYLGREVADALPNGRYLQIPDAGHLGFFERPEAVNTAMLKFFASVKA,soluble
6,QDLARIEQFLDALWLEKNLAENTLNAYRRDLSMMVEWLHHRGLTLATAQSDDLQALLAERLEGGYKATSSARLLSAVRRLFQYLYREKFREDDPSAHLASPKLPQRLPKDLSEAQVERLLQAPLIDQPLELRDKAMLEVLYATGLRVSELVGLTMSDISLRQGVVRVIGKGNKERLVPLGEEAVYWLETYLEHGRPWLLNGVSIDVLFPSQRAQQMTRQTFWHRIKHYAVLAGIDSEKLSPHVLRHAFATHLLNHGADLRVVQMLLGHSDLSTTQIYTHVATERLRQLHQ,soluble
7,MRETHLRSILHTIPDAMIVIDGHGIIQLFSTAAERLFGWSELEAIGQNVNILMPEPDRSRHDSYISRYRTTSDPHIIGIGRIVTGKRRDGTTFPMHLSIGEMQSGGEPYFTGFVRDLTEHQQTQARLQELQ,soluble
8,MENAPLLFQLPDDDTLYQALLARDPAYEGFAFVGVKSTGVFCRLTCAARKPKRENTVFFGSIKGCVEAGFRACLRCRPLERAGVQEPWVQTLLEQLGRDPERRWYEDDLVAQGLDPSTVRRAFKRYFGVTFLEMARLRRMGQGMQQLASGEPVIEAQISAGFDSDSGFRHAFSRLAGQPPSNLRGRELLKVDWLQTPIGVMLAVADAQVLHLLEFFDRPALANELQNLQKSSGSSIGFGRFAPIDQIEAELQRYFAGEAVHFATPLAMSASPFTRTVWQALRAIPLGTTCSYAEVARQVGSPSAVRAVARANAANQISIVIACHRVIGADGSLTGYGGGLEHHHHHH,not soluble
9,MLLNAVNQNQPTIAAEINYIKPNIQATFDLSTSKKSADTLTEQVDKRVVEITDARLLAKTATLKEDGFGLVANKYHMADYFDDAMVSTELYPQIIKHLMSLTNASKGVVFDHTIRSVEDKLHRAEKRSPIHTVHNDYVASSAQHRLHIELEKQGLKASDYHRYQFINTWIPLVDVVLDSPLAFADMRSVTSEQSHLLQVAYPDRVGEIEGFSYNPNNRWFYFSRMTSKEQLNFKVFDSDKSNAVNRTPHSAFLLPSVAENVQSRVSIELRTILLFNKLEHHHHHH,not soluble
10,MSLTQNIRPLPQFKYHPKPLETGAFEQDKTVECDCCEQQTSVYYSGPFYCVDEVEHLCPWCIADGSAAEKFAGSFQDDASIEGVEFEYDEEDEFAGIKNTYPDEMLKELVERTPGYHGWQQEFWLAHCGDFCVFIGYVGWNDIKDRLDEFANLEEDCENFGIRNSDLAKCLQKGGHCQGYLFRCLHCGKLRLWGDFSEGGSHHHHHH,soluble
11,SNAMAVETLYRSTRDLETTFVDRKLADAHDQMLELAELLTDVLIKNVPGLSEKHAEDASIYMAKNRAVFAAAFKNNATALSELSEPAESEG,soluble
12,MPAKSSSRTSATSSRRTILRLKVIPWERIISPFPSERGGSMSSLGIDIGGANLKVASKDGWEIIYFPMWREAERLEGKLREIAEKYSTAKAGVVMTAELADFFKSRAEGVEFIAKACKKAFEDVRFLDVEGNLKSDIDNPENFAASNWVASCRFLLEEAYRNFLFVDMGSTTTDIIPVTSKIEAAKTDFERLKRGELIYFGVLRTPVFYVLKEFEGAPLCPEFFAITADVFVTTGDIKEEDYSCDTPDGKGRSREECMRRLARTVCSDLEELGEEKVKELALEAKWAMIDRLSEVIEHKSKIYGLKTVFACGIGEFLIAEACEEAGAECRLISELYGDYSKLFPAYAMLKLVEQHLEHHHHHH,not soluble
13,SEFVLKHTAFAHLREVGSFPCTLNPHEAESLALVGAMIDQVLELHPGAQRLHIGCDEVYYLGEGEASRRWLQQEQNSTGKLCLSHMRAVASGVKARRPSVTPLVWDDMLRDLPEDQLAASGVPQLVEPVLWDYTADLDVHGKVLLMQKYRRCGFPQLWAASAFKGATGPSQAVPPVEHHLRNHVQWLQVAGSGPTDSLQGIILTGWQRYDHYSVLCELLPAGVPSLAACLQLLLRGGFDEDVKAKVENLLGISSLEKTDPVREGAGSFPGSNILALVTQVSLHLRSSVDALLEGNRYVTGWFSPYHRQRKLIHPVMVQHIQPAALSLLAQWSTLVQELEAALQLAFYPDAVEEWLEENVHPSLQRLQALLQDLSEVSAPPLPPTSPGRDVAQDP,not soluble
14,GPGSMASFDMLREDILDVFNVFDEEGTGSISMQELTRAIYTITGTRISRSDLRSLVQAVQEEMKEEAHARKTPLGVDLPPRANSLETSISPNADGENDAVDSSLFVAVVLKTLNRHTYEQELLFTFHLLEDKNYPGFITKDSLKKAAAEMEEHLTDQEVNEMFDKLVTGISSSAVDFTTFTSVLEAAKRMDD,soluble
15,MTDLEHAVESNRRAWDASADSHLRGGGWQELSLAVQETGFSCLDETLAGVLRNLDLAGKAAVQVGCNNGREVLSLYAFGVARAVGIDQSAAFLAQARQLAERSPHQPRFVEANAYELPAELNGQFDLLLITIGVLNWMPDIARFFASVSGLLKPGGQLAIYETHPFLEMLEPESERPFELRNDYFTDTPHVSREAIVYEGSGSDTGIASYWYVHPLGDILGGLLGAGLRLSHFKEYPHSNREELYDLYEDGPLAIPMCYTLVAVKA,soluble
16,LKSESAEKTREVLWQQYYASNPPDHAVLEVLATPVREALLARFGQHQGSVVPAIDLPELRSVLQQFDSFGKRWEAILLQVLEGIKPNESQVGLPYLSELINKELMILLPSNS,soluble
17,MKATTVKENEVKDDRKLSLNEMLRKRCLQVKNTKMKNSSMPKFQYFVRLNGKTRTLNVNASDTVEQGKMQLCHNARSTRMSYGGKPLSDQITFGEYNISNNSTMDLHFRI,not soluble
18,MRRPPIVRCLFFLNDTIVLELEKTRVISERSNEEVIVVIRKTVKGTDGREYTFVAKEGTFEKLTGLGTTIRGHIPGTDSPFYGILEDGEEGLRAWIMTFRVVNRVPIDSETEEELVRLFLPLVERRRIDRSILLYVE,not soluble
19,MGSDKIHHHHHHMKLEKILQDLEQNHNLRTLTPLKHENKFVYKQDHKLLNLVGNDYLYLASSKELKAEFLNTLKEQDLFFSSSSSRSLSGNFEIYEKLESFLKTKFKDKEILHFNSGYHLNISCIAALSSVSKTLFLTDKFIHASMIDGLRLGRADFFRFHHKDMNHLESLIQKHYENYENIIVLSEALFSMDGDFSDFKTLCELKRRYDKIKLYIDEAHSVGCFDEEGLGLVKKLALENEVDFLVFTFGKALASMGACIICDEKYKKFFINKARAFIYSTALPPINVAWTQFIFKKMPYFKKEREKLELLSTFFKSKLQEKNHIVLGDAYIICLLLGENKKALEISQKLQKAGFFAPAIKEPTVPKNTARIRFSLHAGLNTEELERIIELL,not soluble
20,MKIKILVDEYNTQKEQAKKVRKATSLYFRIHPSIMASKTLRVLFLGPKGTYSHQAALQQFQSTSDVEYLPAASIPQCFNQLENDTSIDYSVVPLENSTNGQVVFSYDLLRDRMIKKALSLPAPADTNRITPDIEVIAEQYVPITHCLISPIQLPNGIASLGNFEEVIIHSHPQVWGQVECYLRSMAEKFPQVTFIRLDCSSTSESVNQCIRSSTADCDNILHLAIASETAAQLHKAYIIEHSINDKLGNTTRFLVLKRRENAGDNEVEDTGLLRVNLLTFTTRQDDPGSLVDVLNILKIHSLNMCSINSRPFHLDEHDRNWRYLFFIEYYTEKNTPKNKEKFYEDISDKSKQWCLWGTFPRNERYYHK,not soluble
21,MTNYKIDFSKGLVPAILQDNQTKQVLMLGYMNQEAFDKTIEDGVVCFYSRSKQRLWTKGETSGHTQRVKDIHVDCDNDTILIDVIPNGPTCHTGSQSCFNTEVPFSVQTLAQTVQDSAQSNNEKSYTKYLLTEGIEKITKKYGEEAFEVVIEAIKGDKKAFVSEVADELYHLFVLMHALGVDFSEIEAELARRHHKRNNFKGERQNIEQWLEHHHHHH,not soluble
22,MSLGKYFGTDGVRGVANTELTPELAFKLGRIGGYVLTKDKENPKVLIGRDTRISGEMLEGALVAGLLSIGVEVMRLGVISTPGVAFLTKAVSASAGVMISASHNPVADNGIKFFGPDGFKLLDEQEKEIETLLDQEDALPRPTGADLGQANDYFEGAQKYLQFLKQTVDEDFTGIHIALDCANGAASSLAPHLFADLEADISTMGTSPNGKNINDGVGSTHPEALAAFVNAKNADIGLAFDGDADRLIAVDEKGNIVDGDKILYICAKYMKEKGLLKQQTLVTTVMSNLGLYKALEALQIDTKQTAVGDRYVMEEMRKGGYNLGGEQSGHIIFLDHITTGDGMLSALQLVNIMKQTGKKLSELAEEWETFPQTLVNIRVTDKHAVTDNEKVPAVIKEVEQEMNGEGRVLVRPSGTEPLVRIMVEAKTEELCDAFVNKIADVVKAELGQEEGHHHHHH,soluble
23,MEMRGKITKINENGLGVLGNILVPFAYPGDEVEVTETRERFGKIIARDFKLMTPSPLRIPGKCSHFGKCGGCLWQGLRYREQLKLKEEIFKRITGIEAEIKGSPRIWYFRNISNFIITVNGIGFKEFGMPKTVVNIRECPIFSERTPKYLKALKDFLRESNLKPWNWREGDVHYLQVREGKFTGEVMVNIIAHVPLNYREALMEAFNFADSIYWSLKADKKDDPRGFPTLVLGNEVIREKVEGITYLIHPSVFFQTNSYALPLLLKSVEKFCEGSKVLDLYSGIGTLSLYLAKRGFEVTGVEVNGTSVEMAKRSAEINSINATFIQGKAEDAELEGYETLIVDPPRKGLKEFSRRIVKKGPNTLIYVSCNPLRFILDYRNYLSEAYKVDDALLIDMFPHTPHIEAVIKLVRR,soluble
